Measured values reported in patent US20220089656A1 (published 2022).

Target: T1, human ASIP (agouti-signaling protein, RnD Systems) (human, UniProt P42127 23-132)
T1 construct: Coated at 2 ug/ml; also called ASIP protein
T1 sequence (looked up): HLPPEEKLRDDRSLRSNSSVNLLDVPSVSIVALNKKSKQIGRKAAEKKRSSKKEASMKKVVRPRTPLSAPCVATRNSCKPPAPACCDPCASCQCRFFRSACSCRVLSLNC
Assay: ELISA: Protein M-HRP on coated human ASIP without antibody

B1: Protein M horseradish peroxidase (HRP) fusion protein (other)
chain: EQKLISEEDLAANQLTPTFYDNSCPNVSNIVRDTIVNELRSDPRIAASILRLHFHDCFVNGCDASILLDNTTSFRTEKDAFGNANSARGFPVIDRMKAAVESACPRTVSCADLLTIAAQQSVTLAGGPSWRVPLGRRDSLQAFLDLANANLPAPFFTLPQLKDSFRNVGLNRSSDLVALSGGHTFGKNQCRFIMDRLYNFSNTGLPDPTLNTTYLQTLRGLCPLNGNLSALVDFDLRTPTIFDNKYYVNLEEQKGLIQSDQELFSSPNATDTIPLVRSFANSTQTFFNAFVEAMDRMGNITPLTGTQGQIRLNCRVVNSNSGGGGSGGGGSGGGGSTNLVNQSGYALVASGRSGNLGFKLFSTQSPSAEVKLKSLSLNDGSYQSEIDLSGGANFREKFRNFANELSEAITNSPKGLDRPVPKTEISGLIKTGDNFITPSFKAGYYDHVASDGSLLSYYQSTEYFNNRVLMPILQTTNGTLMANNRGYDDVFRQVPSFSGWSNTKATTVSTSNNLTYDKWTYFAAKGSPLYDSYPNHFFEDVKTLAIDAKDISALKTTIDSEKPTYLIIRGLSGNGSQLNELQLPESVKKVSLYGDYTGVNVAKQIFANVVELEFYSTSKANSFGFNPLVLGSKTNVIYDLFASKPFTHIDLTQVTLQNSDNSAIDANKLKQAVGDIYNYRRFERQFQGYFAGGYIDKYLVKNVNTNKDSDDDLVYRSLKELNLHLEEAYREGDNTYYRVNENYYPGASIYENERASRDSEFQNEILKRAEQNGVTFDENIKRITASGKYSVQFQKLENDTDSSLERMTKAVEGLVTVIGEEKFETVDITGVSSDTNEVKSLAKELKTNALGVKLKL
notes: also called Protein M-HRP
binding result: no binding
